Source: patent US20230167200A1 (BIOTHEUS, published 2023)

Columns and labels:
[1] = target: T1, anti-PD-1/TIGIT/human serum albumin trispecific antibody Bi-70-71; assay: flow cytometry on CHO-hTIGIT cells
[2] = target: T2, anti-PD-1/TIGIT/human serum albumin trispecific antibody Bi-72-73; assay: flow cytometry on CHO-hTIGIT cells
[3] = target: T1, anti-PD-1/TIGIT/human serum albumin …; assay: BLI (Octet), antibody held on PD-1 sensor, human TIGIT 100 nM in solution
[4] = target: T2, anti-PD-1/TIGIT/human serum albumin …; assay: as above
[5] = target: T3, human PD-L1 expressed on CHO cells (CHO-hPD-L1 cells) (human, UniProt Q9NZQ7 19-290); assay: flow cytometry on CHO-hPD-L1 cells
T3 construct: whole, on cells; also called CHO-KI-PD-L1/PD-L2

[6] = target: T4, human PD-L2 expressed on CHO cells (CHO-hPD-L2 cells) (human, UniProt Q9BQ51 20-273); assay: flow cytometry on CHO-hPD-L2 cells
T4 construct: whole, on cells; also called CHO-KI-PD-L1/PD-L2
T4 sequence (looked up): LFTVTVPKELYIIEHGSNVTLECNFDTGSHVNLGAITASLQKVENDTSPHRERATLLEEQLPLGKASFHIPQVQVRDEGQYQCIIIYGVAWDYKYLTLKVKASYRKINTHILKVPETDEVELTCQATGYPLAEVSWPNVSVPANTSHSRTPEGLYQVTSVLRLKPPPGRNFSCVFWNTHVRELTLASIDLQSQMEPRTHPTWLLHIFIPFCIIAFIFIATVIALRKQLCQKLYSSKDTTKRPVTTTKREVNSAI

T3 sequence (Q9NZQ7 19-290): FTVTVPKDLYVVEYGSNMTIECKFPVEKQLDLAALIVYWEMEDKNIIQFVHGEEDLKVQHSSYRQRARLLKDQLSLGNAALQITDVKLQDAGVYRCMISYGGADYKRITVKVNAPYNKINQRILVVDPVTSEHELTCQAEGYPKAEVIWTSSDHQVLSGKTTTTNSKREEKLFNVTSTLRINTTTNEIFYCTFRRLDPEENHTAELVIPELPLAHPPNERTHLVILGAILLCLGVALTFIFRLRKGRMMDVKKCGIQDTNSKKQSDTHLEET

B1: human TIGIT expressed on CHO cells (CHO-hTIGIT cells) (receptor, UniProt Q495A1 22-244, looked up)
chain: MMTGTIETTGNISAEKGGSIILQCHLSSTTAQVTQVNWEQQDQLLAICNADLGWHISPSFKDRVAPGPGLGLTLQSLTVNDTGEYFCIYHTYPDGTYTGRIFLEVLESSVAEHGARFQIPLLGAMAATLVVICTAVIVVVALTRKKKALRIHSVEGDLRRKSAGQEEWSPSAPSPPGSCVQAEAAPAGLCGEQRGEDCAELHDYFNVLSYRSLGNCSFFTETG
notes: whole, on cells; also called CHO-hTIGIIT
B1: binds [1]; binds [2].

B2: human TIGIT (ACROBiosystems) (receptor, UniProt Q495A1 22-141, looked up)
chain: MMTGTIETTGNISAEKGGSIILQCHLSSTTAQVTQVNWEQQDQLLAICNADLGWHISPSFKDRVAPGPGLGLTLQSLTVNDTGEYFCIYHTYPDGTYTGRIFLEVLESSVAEHGARFQIP
notes: Bought protein
B2: binds [3]; binds [4].

B3: anti-PD-L1/PD-L2 bispecific antibody Fc fusion protein Bi-203-204 (bispecific antibody, human IgG1, kappa, L234A L235A, V domains shown)
V domain 1: QVQLVESGGGLVKPGGSLRLSCAASGHTFIIYAIGWFRQAPGKGLEFVATINWSGSMTNYADSVKGRFTISRDNAKNTVYLQMNSLKPDDTAVYYCAAYVGATISTAHSRYDYWGQGTLVTVSS
V domain 2: EVQLVESGGGLVQPGGSLRLSCAASGRTFSSMTIGWFRQAPGKGLEFVSGIGWTSGLTVYADSVKGRFTISRDNAKNSMYLQMNSLRAEDTAVYYCAADSMNRGQFDYWGQGTLVTVSS
B3: binds [5]; binds [6].
